Assay results published in paper PMC11321651, “Regulation of Glandular Size and Phytoalexin Biosynthesis by a Negative Feedback Loop in Cotton”.

T1: JAVL (JAVL_A) (UniProt A0A1U8LLK1 1-170)
T1 sequence: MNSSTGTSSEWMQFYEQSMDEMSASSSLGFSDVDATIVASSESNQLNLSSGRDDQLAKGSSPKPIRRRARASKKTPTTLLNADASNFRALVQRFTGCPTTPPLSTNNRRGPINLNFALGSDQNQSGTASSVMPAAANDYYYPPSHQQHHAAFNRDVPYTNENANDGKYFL

B1: GoPGF promoter G-box probe (dsDNA)
DNA 1: AACAGGAGATTTCCACGTGATAATGATGTCAA
DNA 2: TTGACATCATTATCACGTGGAAATCTCCTGTT
B2: AOS promoter G-box probe (dsDNA)
DNA 1: TTATGGCTGTAAAAACGTGCGAATTCATGGAG
DNA 2: CTCCATGAATTCGCACGTTTTTACAGCCATAA

Target: T1, JAVL (JAVL_A)
Test: EMSA; EMSA: 30 °C for 30 min, then 5% native PAGE in Tris/borate/EDTA, 10 V/cm, 4 °C; 10x and 100x cold competitor; binding buffer, salt and pH not stated
Conditions: protein: recombinant; tags: His (pET32a); label: Cy5; blunt (duplex implied, only one strand printed)

Row | Binder | binding result
1 | B1 | binds
2 | B2 | binds
